# Substrate: COc1cc(-c2cc(OC)c(O)c(OC)c2)cc(OC)c1O
# Experiment: purified protein
# Type: biochemical, Neurospora crassa
# Conditions: 100 µM H2O2 co-substrate, 50 mM sodium phosphate pH 6.0, apparent, no saturation reached
protein,measurement,value
"NcLPMO9C (Neurospora crassa OR74A) (protein, full-length secreted enzyme, recombinant in Pichia pastoris X-33, purified) HTIFQKVSVNGADQGQLKGIRAPANNNPVTDVMSSDIICNAVTMKDSNVLTVPAGAKVGHFWGHEIGGAAGPNDADNPIAASHKGPIMVYLAKVDNAATTGTSGLKWFKVAEAGLSNGKWAVDDLIANNGWSYFDMPTCIAPGQYLMRAELIALHNAGSQAGAQFYIGCAQINVTGGGSASPSNTVSFPGAYSASDPGILINIYGGSGKTDNGGKPYQIPGPALFTCPAGGSGGSSPAPATTASTPKPTSASAPKPVSTTASTPKPTNGSGSGTGAAHSTKCGGSKPAATTKASNPQPTNGGNSAVRAAALYGQCGGKGWTGPTSCASGTCKFSNDWYSQCLP",Km,3.6 ± 0.5 mM
